Assay results reported in the supplement of paper PMC10724198.
± gives the standard deviation of the averaged measurements.

These sequences were tested on Saccharomyces cerevisiae (assay: protein stability index of tFT-peptide fusion (C-terminal peptide) (PSI (0-1 scale)); higher = more stable (slower turnover)). Conditions: genetic background: wild type; temperature: 30 C.
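Also: PSI is a weighted mean of sequencing reads over stability bins, variants kept only with over 10 reads, mCherry proximal and sfGFP distal, peptide attached via GGGS linker.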

Sequence	protein stability index
LWLPSTSLIPLI	0.641 ± 0.018
PPRVSLLSPPPP	0.693 ± 0.034
STQGAFHFLVSL	0.679 ± 0.015
RGDIQASKRIHL	0.752 ± 0.046
WVRLITCVRCSR	0.594 ± 0.048
PPLEHPGIAGGR	0.644 ± 0.1
FGGVGRGGLLWC	0.7749 ± 0.0041
FLSEPAKRILYL	0.667 ± 0.018
GDWIYRMDRILI	0.816 ± 0.035
RGCVKQGLYCVL	0.679 ± 0.044
VGSWSVICGGVL	0.6929 ± 0.0061
GVGGRAGWGGLL	0.7167 ± 0.002
ALRVAVIANMRV	0.5724 ± 0.0057
FLAWPRSDYPGF	0.732 ± 0.022
PLPHPPRPLPPH	0.717 ± 0.015
PLRPPCPLPPRT	0.6031 ± 0.0056
ITRKKLEISVDK	0.685 ± 0.04
SPGPVTPRPSLR	0.669 ± 0.019
PLRPSSPLPPPL	0.71 ± 0.021
GLGMIIQNIIHS	0.642 ± 0.026
RLEKGEDREGKK	0.641 ± 0.085
VKGYGLILQISV	0.56537 ± 0.00043
PLPSLPPPPPPL	0.661 ± 0.076
RRLLRWFYLDGG	0.661 ± 0.022
PPPPPPPPPSFP	0.65 ± 0.0086
LARFRAEWGGVV	0.691 ± 0.019

Sequence	protein stability index
NEVDSRGWTTLA	0.59 ± 0.021
PRHSPPPPLPAP	0.699 ± 0.014
PPLRPRCSPAPR	0.706 ± 0.01
RMNSDMKDTEAQ	0.65 ± 0.0075
GRPYCISASPPH	0.706 ± 0.0075
VPPVLRPLPPSP	0.72 ± 0.025
RWVNNKKTKGQD	0.767 ± 0.042
LRCSKRNKSMGQ	0.648 ± 0.048
LVDKGSADVLDD	0.632 ± 0.048
APAPPPSPPLPS	0.68 ± 0.0081
GSAGPWSFVGDP	0.702 ± 0.085
PPCLYPFPPPSR	0.661 ± 0.017
RTTHPSPPTLTV	0.629 ± 0.021
WAGGRHCKGVVV	0.681 ± 0.13
VPFPHALLSALP	0.638 ± 0.037
WARGVAASGRFV	0.6916 ± 0.0025
GTLFKEGSRVTL	0.665 ± 0.027
LPPLPPLPPPPH	0.686 ± 0.076
PPLFPPLAPLHR	0.72 ± 0.032
KQNKIIKKRKKK	0.659 ± 0.067
CRGRGGCPMSWR	0.689 ± 0.1
PPPMSVAVFPFG	0.678 ± 0.03
PTSDSPSLALPC	0.71 ± 0.023
DFLCHFCVIDEC	0.653 ± 0.066
GGGERTAGVGQT	0.733 ± 0.05
KKKKKKKKDNKL	0.781 ± 0.099

Sequence	protein stability index
SLLDPLLPLLLF	0.634 ± 0.017
RPPSLWRSSFTP	0.6822 ± 0.0026
GGGVLTWLGENC	0.702 ± 0.0082
SKVLKSKSTGRG	0.75 ± 0.11
CLSLLWRVLDLW	0.688 ± 0.065
SPRIDFLLPCSS	0.647 ± 0.032
VPPHSLPPPTHP	0.753 ± 0.048
SPPLSRSPPPTL	0.674 ± 0.039
PGFVGPWAGGGA	0.735 ± 0.12
DSNTAGLTRDIA	0.645 ± 0.015
GGVRTLVSRHLP	0.7121 ± 0.0043
SSAPPPPPRPLP	0.588 ± 0.052
CVCVCHPPRRFL	0.719 ± 0.015
TRIGNGHPLGCG	0.718 ± 0.024
VNATDYDGQPIT	0.679 ± 0.11
TRTRSMTQLVPL	0.716 ± 0.068
PAPLPADTFVEC	0.668 ± 0.065
RKTKKEEKTKRN	0.719 ± 0.2
TERGRLVWYCMR	0.674 ± 0.077
YLDVWTGLSCQD	0.683 ± 0.11
PPRPPHPAPSPH	0.638 ± 0.024
VIKESKKKTKKI	0.544 ± 0.044
RKKRFENKKEKY	0.731 ± 0.057
GAPKRLSISLSS	0.681 ± 0.019
PSVPPLQPPHSV	0.697 ± 0.031
DLASPIFSRFSS	0.687 ± 0.036

Sequence	protein stability index
IIQNNNQLKKRR	0.671 ± 0.049
PPLLPTPRPPPP	0.65 ± 0.037
HMGTNSSTGDRN	0.636 ± 0.032
CGYVSGGWAGNV	0.691 ± 0.025
VRFPCGFCKKLS	0.637 ± 0.036
RGWVGGGSSAWS	0.651 ± 0.024
GGCGGVGGWGVA	0.712 ± 0.066
MVTGELVQLLLV	0.528 ± 0.0048
PPPPPLSLPPPA	0.693 ± 0.024
LASARPLILSWP	0.628 ± 0.019
WFQSSLVCDTWL	0.681 ± 0.015
PPSTFDPSTLRP	0.665 ± 0.041
ETRKKKLTNSRT	0.622 ± 0.071
VSVILAGLFWIT	0.473 ± 0.038
VFALPPAPPPSP	0.722 ± 0.062
CLRDTLTCLFFF	0.5953 ± 0.0044
CGGAADWRDWGW	0.775 ± 0.086
LVSQLLALCLSV	0.5358 ± 0.00089
GGGGVVVVQGAG	0.725 ± 0.058
FRAPVLCPSYYS	0.7064 ± 0.0049
IAEVGRFHLVVS	0.542 ± 0.04
FVSWNLPLAFAF	0.499 ± 0.017
RSHPSPPPVILY	0.686 ± 0.045
SLVTGRGFKVYR	0.681 ± 0.05
NPGLGLSCPSPP	0.701 ± 0.043
VSSRWGGWWNGV	0.655 ± 0.046

Sequence	protein stability index
RYKALEAQGPRF	0.717 ± 0.0008
AAVLSYLKHLFV	0.627 ± 0.022
PPPSPPLPPPLL	0.696 ± 0.05
KRTRRADVGKED	0.65 ± 0.064
WRDGSLKIKCML	0.756 ± 0.21
HRGIPMRDLAPN	0.675 ± 0.02
THPPLPPYLSPP	0.727 ± 0.015
NKQKKKKSTKRN	0.704 ± 0.029
PPPLTPPTCLPP	0.644 ± 0.013
PLPPPVFLLFPL	0.667 ± 0.051
AHSSPMGYLPPF	0.693 ± 0.11
GPGPRLSCLVPT	0.73 ± 0.035
RLSMCLDDPPRL	0.717 ± 0.025
GVWCLDVYGRRC	0.6837 ± 0.0022
PQLNRKAATPQN	0.641 ± 0.069
ERGRRPAGGGEK	0.719 ± 0.028
GPGCVFFLACRG	0.559 ± 0.024
PLSPSLPNPCSL	0.706 ± 0.0079
LFALSVHTHPYP	0.73 ± 0.024
AWLTTSGLVGSD	0.725 ± 0.029
GSYVPPVVLLYK	0.647 ± 0.0095
YPNENFALLTEH	0.653 ± 0.046
VRFYVFSFSNWL	0.586 ± 0.031
DPQRQDVFRVSE	0.6823 ± 0.0021
RERASCHSHTNS	0.675 ± 0.013
WVAGPWLGRVQE	0.733 ± 0.0083

Sequence	protein stability index
RKKKKKKKKKSN	0.631 ± 0.089
IKLKVKIQKENG	0.654 ± 0.021
NKKKNKKKNKKK	0.676 ± 0.032
LRTPNIYLSFSP	0.666 ± 0.1
PPPFPPPSFASR	0.696 ± 0.057
VVRHWRRMTGDA	0.629 ± 0.12
GGGVHRAVRPGN	0.653 ± 0.03
FRTVRSMVGRRP	0.721 ± 0.077
KKITTDNKKNKI	0.651 ± 0.067
APPLPTHYCPHL	0.841 ± 0.23
WPCVGWTLCSCS	0.541 ± 0.042
LPHPPPLPTPPP	0.739 ± 0.13
KRGRRKLQRGRQ	0.679 ± 0.028
GWREPQHGARGP	0.719 ± 0.022
KSYTGSRGQRVL	0.701 ± 0.053
TLAPPSRATPPP	0.648 ± 0.041
HSRALLSVLPPH	0.7023 ± 0.0057
ERNNTICREIIE	0.686 ± 0.026
VAGFPSPVVLGW	0.607 ± 0.085
VVFEVFLTHMSM	0.624 ± 0.065
HRKPHRSKTPIH	0.693 ± 0.032
CSLGLGGRVAAL	0.697 ± 0.048
TLSTSPPPCHPL	0.667 ± 0.06
SPSLPHAPSRPP	0.607 ± 0.06
LFYFFGKRPAHL	0.781 ± 0.045
YGVRCSRINRSG	0.678 ± 0.059

Sequence	protein stability index
FVFGVCGGGGIG	0.671 ± 0.11
GSCLLCGACGCR	0.692 ± 0.061
PPPLFPPSSLLP	0.706 ± 0.033
ILTCGARSSICD	0.639 ± 0.011
PPPPTPPPRTSP	0.739 ± 0.063
VAESPGWAAGVD	0.689 ± 0.015
SSPPPHPPPVPR	0.688 ± 0.1
RAGGGAWAGGVA	0.7085 ± 0.0024
GAVTWGGAGVGV	0.694 ± 0.022
QRGRGGRHVTDI	0.71 ± 0.069
GLYRQRVCLRSG	0.6097 ± 0.0036
EENGAGVSVGKL	0.653 ± 0.0085
RSSLGSFSELSQ	0.777 ± 0.031
TVRAPLDSARCP	0.739 ± 0.017
PSPLPPPAPHPL	0.752 ± 0.26
SSAGEVAFVAGT	0.689 ± 0.089
GVPPFSPPPPPH	0.683 ± 0.017
HPPTLPPLPIPP	0.625 ± 0.0091
RGGVGLEGEGGE	0.615 ± 0.026
GDCYLCSACEWW	0.753 ± 0.016
SVYGIASRAQLL	0.64 ± 0.11
FLVRMIYYRRHP	0.616 ± 0.028
RVCLVVWRECWF	0.509 ± 0.0082
SPSPPPPPPPPL	0.6877 ± 0.0022
FPDGLGSVPRSP	0.68389 ± 0.0004
FLGLDLVFRFFV	0.554 ± 0.066

Sequence	protein stability index
RLPSPPTAPAPP	0.658 ± 0.0084
VGCPKMTKIFFV	0.594 ± 0.028
PLISYIEGGPTS	0.674 ± 0.02
LSRTPLPLPPPS	0.705 ± 0.019
LPPRPRPLPPSP	0.589 ± 0.0077
SSRAPSLPPPPP	0.674 ± 0.025
CSEDMVGSIVVV	0.651 ± 0.041
EYAVDAERLRTT	0.72 ± 0.053
FGFSSGRVRQRV	0.754 ± 0.011
VFPYGVSRGALL	0.66 ± 0.011
REKERKRGKAVK	0.698 ± 0.019
LPPQRPSQYLLH	0.786 ± 0.11
KRGIHKLVNEVG	0.683 ± 0.011
ARALCYSFPPAL	0.77 ± 0.1
NRAVTRKRKEEK	0.664 ± 0.03
RAIPRPLPPRRI	0.7164 ± 0.0029
CFPSSVPFPSLL	0.778 ± 0.058
WRNVEITSGSPH	0.672 ± 0.063
PPHLSPPPPPLL	0.6987 ± 0.0054
WGRGRWEMVGRT	0.693 ± 0.037
